Measurements from patent publication US20200299400A1 (published 2020).
Blank lines part the entries; values can stand above or below the binder they belong to.

Biological target: T1, human GITR on cells (human, UniProt Q9Y5U5 26-241)
T1 chain: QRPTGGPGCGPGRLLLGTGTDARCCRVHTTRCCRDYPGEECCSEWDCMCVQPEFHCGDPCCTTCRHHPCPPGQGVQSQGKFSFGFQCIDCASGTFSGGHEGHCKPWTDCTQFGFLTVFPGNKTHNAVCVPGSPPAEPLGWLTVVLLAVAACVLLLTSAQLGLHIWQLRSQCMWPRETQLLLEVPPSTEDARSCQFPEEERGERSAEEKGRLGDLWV
Assay: FACS binding to activated human CD4 T cells

EC50: 0.163 nM
B1: anti-GITR-IgG2-IgG1.1 (antibody)
heavy: QVQLVESGGGVVQPGRSLRLSCAASGFTFSSYGMHWVRQAPGKGLEWVAVIWYEGSNKYYADSVKGRFTISRDNSKNTLYLQMNSLRAEDTAVYYCARGGSMVRGDYYYGMDVWGQGTTVTVSSASTKGPSVFPLAPCSRSTSESTAALGCLVKDYFPEPVTVSWNSGALTSGVHTFPAVLQSSGLYSLSSVVTVPSSNFGTQTYTCNVDHKPSNTKVDKTVERKCCVECPPCPAPPVAGPSVFLFPPKPKDTLMISRTPEVTCVVVDVSHEDPEVKFNWYVDGVEVHNAKTKPREEQYNSTYRVVSVLTVLHQDWLNGKEYKCKVSNKALPSSIEKTISKAKGQPREPQVYTLPPSREEMTKNQVSLTCLVKGFYPSDIAVEWESNGQPENNYKTTPPVLDSDGSFFLYSKLTVDKSRWQQGNVFSCSVMHEALHNHYTQKSLSLSPG
light: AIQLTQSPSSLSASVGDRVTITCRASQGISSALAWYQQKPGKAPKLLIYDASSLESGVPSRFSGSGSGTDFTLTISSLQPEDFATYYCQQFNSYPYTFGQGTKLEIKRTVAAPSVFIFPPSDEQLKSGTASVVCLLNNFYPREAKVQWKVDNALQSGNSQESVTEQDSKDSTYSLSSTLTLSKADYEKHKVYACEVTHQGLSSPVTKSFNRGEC

EC50: 0.277 nM
B2: anti-GITR-IgG2 (antibody)
heavy: QVQLVESGGGVVQPGRSLRLSCAASGFTFSSYGMHWVRQAPGKGLEWVAVIWYEGSNKYYADSVKGRFTISRDNSKNTLYLQMNSLRAEDTAVYYCARGGSMVRGDYYYGMDVWGQGTTVTVSSASTKGPSVFPLAPCSRSTSESTAALGCLVKDYFPEPVTVSWNSGALTSGVHTFPAVLQSSGLYSLSSVVTVPSSNFGTQTYTCNVDHKPSNTKVDKTVERKCCVECPPCPAPPVAGPSVFLFPPKPKDTLMISRTPEVTCVVVDVSHEDPEVQFNWYVDGVEVHNAKTKPREEQFNSTFRVVSVLTVVHQDWLNGKEYKCKVSNKGLPAPIEKTISKTKGQPREPQVYTLPPSREEMTKNQVSLTCLVKGFYPSDIAVEWESNGQPENNYKTTPPMLDSDGSFFLYSKLTVDKSRWQQGNVFSCSVMHEALHNHYTQKSLSLSPGK
light: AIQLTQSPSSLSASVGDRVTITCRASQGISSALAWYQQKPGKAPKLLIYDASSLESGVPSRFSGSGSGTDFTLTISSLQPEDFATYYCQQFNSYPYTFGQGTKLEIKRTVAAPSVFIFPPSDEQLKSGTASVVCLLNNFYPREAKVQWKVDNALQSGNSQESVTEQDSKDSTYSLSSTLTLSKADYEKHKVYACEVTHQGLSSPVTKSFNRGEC
